Laboratory results as given in article PMC4119023.
Positions count from the first letter of the chain named. Numbers in names are those of the source.

B1: hRPAP2 NTD (Homo sapiens) (protein)
chain: MADFAGPSSAGRKAGAPRCSRKAAGTKQTSTLKQEDASKRKAELEAAVRKKIEFERKALHIVEQLLEENITEEFLMECGRFITPAHYSDVVDERSIVKLCGYPLCQKKLGIVPKQKYKISTKTNKVYDITERKSFCSNFCYQASKFFEAQIPKTPVWVREEERHPDFQLLKEEQSGHSGEEVQLCSKAI
B2: KlRtr1 FL (Kluyveromyces lactis NRRL Y-1140) (protein)
chain: MATIEEIKEVVLKPYTNHRQLTIREVETISINLIDLLITKDVKDARTMKYISRFLTKQDYADLVQERNLVKRCGYPLCSKSQARVRDPFADVQMTNFLRQNNPYAYLTEYCTKAHFRCSQFYQFQLSDEALFARVGVHLDDYEPPSEIQLLEEVLARESDVKQMIRGMTDLKLADDDSREEMERDISDMLADIKIVEINEPNIIGDLGRDR
B3: KlRtr1 FL (Kluyveromyces lactis NRRL Y-1140; E197Q) (protein)
chain: B2 chain with E197Q
B4: KlRtr1 NTD (Kluyveromyces lactis NRRL Y-1140) (protein)
chain: MATIEEIKEVVLKPYTNHRQLTIREVETISINLIDLLITKDVKDARTMKYISRFLTKQDYADLVQERNLVKRCGYPLCSKSQARVRDPFADVQMTNFLRQNNPYAYLTEYCTKAHFRCSQFYQFQLSDEALFARVGVHLDDYEPPSEIQLLEEVLA

Key:
[1] = substrate: Cc1cc(=O)oc2c(F)c(OP(=O)(O)O)c(F)cc12; assay: steady-state phosphatase assay; assay type: biochemical, Homo sapiens; conditions: 50 mM MES pH 5.5, 30 °C, 10 μM enzyme
[2] = substrate: Cc1cc(=O)oc2c(F)c(OP(=O)(O)O)c(F)cc12; assay: steady-state phosphatase assay; assay type: biochemical, Kluyveromyces lactis; conditions: 50 mM MES pH 5.5, 30 °C, 10 μM enzyme

Protein	Km ([2]; EDTA-treated enzyme)	kcat ([2]; EDTA-treated enzyme)	other results
B1			Km [1]: 1668 ± 205 µM; kcat [1]: 0.0005 ± 3e-05 s⁻¹
B2	587 ± 70 µM	0.001 ± 3e-05 s⁻¹	
B3	529 ± 45 µM	0.0016 ± 4e-05 s⁻¹	
B4			Km [2]: 694 ± 74 µM; kcat [2]: 0.0015 ± 5e-05 s⁻¹
